Test results taken from patent publication US20250101126A1.

Legend:
[1] = biological target: Tn-glycosylated MUC4 on cells (MUC4-Tn; COSMC-KO cells, cancer tissue) (UniProt Q99102); assay: flow cytometry on T3M4 COSMC-KO (T3M4-M) cells
[2] = biological target: MUC4-Tn glycopeptide … (SEQ ID NO:154) with O-linked GalNAc on the serine and threonine at positions 12 and 13; assay: BLI (Octet), MUC4 glycopeptide on biosensor
Chain of MUC4-Tn glycopeptide … (SEQ ID NO:154) with O-linked GalNAc on the serine and threonine at positions 12 and 13 (peptide, as listed by the source): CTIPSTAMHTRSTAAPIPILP

Binder | EC50 [1] | Kd [2]
2D5-HV1-69-C/KV2B (antibody, V domains shown) VH: QVQLVQSGAEVKKPGSSVKVSCKASGYTFSDHAIHWVRQAPGQGLEWLGYISPGNADINYAQKFQGRVTITADKSTSTAYMELSSLRSEDTAVYYCKRSMANSFDYWGQGTLVTVSS VL: DIVMTQTPLSLPVTPGEPASISCRSSQSVLYSSDEKTYLAWYLQKPGQSPQLLIYWASTRESGVPDRFSGSGSGTDFTLKISRVEAEDVGVYYCHQYLSSYTFGQGTKLEIK | 0.0194 µg/mL | 5.3 nM
2D5-HV1-69-B/KV2B (antibody, V domains shown) VH: QVQLVQSGAEVKKPGSSVKVSCKASGYTFTDHAIHWVRQAPGQGLEWLGYISPGNDDIQYNQKFKGRVTITADKSTSTAYMELSSLRSEDTAVYYCKRSMANSFDYWGQGTLVTVSS VL: DIVMTQTPLSLPVTPGEPASISCRSSQSVLYSSDEKTYLAWYLQKPGQSPQLLIYWASTRESGVPDRFSGSGSGTDFTLKISRVEAEDVGVYYCHQYLSSYTFGQGTKLEIK | 0.0248 µg/mL | 3.3 nM
2D5-HV1-69-A/KV2A (antibody, V domains shown) VH: QVQLVQSGAEVKKPGSSVKVSCKASGYTFTDHAIHWVRQAPGQGLEWLGYISPGNDDIQYNAKFKGRATLTADKSTSTAYMELSSLRSEDTAVYFCKRSMANSFDYWGQGTLVTVSS VL: DIVLTQTPLSLPVTPGEPASISCKSSQSVLYSSDQKNYLAWYLQKPGQSPQLLIYWASTRESGVPDRFSGSGSGTDFTLKISRVEAEDVGVYYCHQYLSSYTFGQGTKLEIK | 0.0179 µg/mL | 4.1 nM
2D5-HV1-3B/KV2B (antibody, V domains shown) VH: QVQLVQSGAEVKKPGASVKVSCKASGYTFTDHAIHWVRQAPGQRLEWLGYISPGNDDIQYSQKFKGRVTITADKSASTAYMELSSLRSEDTAVYYCKRSMANSFDYWGQGTLVTVSS VL: DIVMTQTPLSLPVTPGEPASISCRSSQSVLYSSDEKTYLAWYLQKPGQSPQLLIYWASTRESGVPDRFSGSGSGTDFTLKISRVEAEDVGVYYCHQYLSSYTFGQGTKLEIK | 0.0163 µg/mL | 7.7 nM
